Article PMC6805918, “Extracellular pyridine nucleotides trigger plant systemic immunity through a lectin receptor kinase/BAK1 complex” (Nature Communications, 2019)

Biological target: T1, GST-BAK1KD (cytoplasmic kinase domain of BAK1, AAs 250-615, fused to GST) (Arabidopsis thaliana, UniProt Q94F62 250-615)
T1 construct: BRASSINOSTEROID …1-ASSOCIATED KINASE1 (BAK1), Arabidopsis thaliana, cytoplasmic kinase domain, amino acids 250-615; Cloned into the EcoRI/SalI site of pGEX-4T-1; source: E. coli BL21(DE3), purified; not shown: GST, N-terminal, kept
T1 sequence (looked up): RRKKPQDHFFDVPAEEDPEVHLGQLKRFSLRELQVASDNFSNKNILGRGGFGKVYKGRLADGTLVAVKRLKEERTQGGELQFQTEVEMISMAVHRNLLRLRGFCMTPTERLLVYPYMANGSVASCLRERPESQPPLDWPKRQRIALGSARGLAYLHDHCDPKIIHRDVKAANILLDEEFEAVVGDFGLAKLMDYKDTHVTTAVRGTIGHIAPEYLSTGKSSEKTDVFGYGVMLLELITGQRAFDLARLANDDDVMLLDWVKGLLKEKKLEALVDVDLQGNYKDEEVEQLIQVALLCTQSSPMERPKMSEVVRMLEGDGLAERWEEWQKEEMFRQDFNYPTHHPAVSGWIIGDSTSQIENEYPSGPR
Assay: pull-down; 1 μg MBP or MBP-LecRK-VI.2KD incubated with 1 μg GST-BAK1KD in 20 mM Tris-HCl, 200 mM NaCl, 1 mM EDTA, pH 7.4, 4 °C; pulled down with amylose resin beads; washes with 0.6% Triton X-100; immunoblot with anti-MBP and anti-GST
Conditions: both partners purified

binding result: binds
B1: MBP-LecRK-VI.2KD (cytoplasmic kinase domain of LecRK-VI.2, AAs 331-682, fused to maltose-binding protein) (domain or fragment, Arabidopsis thaliana, UniProt Q9M021 331-682, looked up)
chain: FVMYKKRLGQEETLEDWEIDHPRRLRYRDLYVATDGFKKTGIIGTGGFGTVFKGKLPNSDPIAVKKIIPSSRQGVREFVAEIESLGKLRHKNLVNLQGWCKHKNDLLLIYDYIPNGSLDSLLYTVPRRSGAVLSWNARFQIAKGIASGLLYLHEEWEKIVIHRDVKPSNVLIDSKMNPRLGDFGLARLYERGTLSETTALVGTIGYMAPELSRNGNPSSASDVFAFGVLLLEIVCGRKPTDSGTFFLVDWVMELHANGEILSAIDPRLGSGYDGGEARLALAVGLLCCHQKPASRPSMRIVLRYLNGEENVPEIDDEWGYSKSSRSEFGSKLVGYVSSTSITRVSSTSRISQ
notes: lectin receptor kinase LecRK-VI.2, Arabidopsis thaliana, gene At5g01540, cytoplasmic kinase domain, amino acids 331-682; Cloned into the BamHI/SalI site of pMAL-p2X; source: E. coli BL21(DE3), purified; not shown: MBP, N-terminal, kept
